Test results reported in the Human Domainome abundance scans (Beltran et al. 2025).
± gives the uncertainty stated by the source.

B1: POU domain, class 2, transcription factor 1, residues 285 to 354; numbered along this chain, P14859 (parent)
chain: LEELEQFAKTFKQRRIKLGFTQGDVGLAMGKLYGNDFSQTTISRFEALNLSFKNMCKLKPLLEKWLNDAE

Variants of: B1
Assay: abundance fitness (aPCA) (normalised: wild type 0, dead -1); higher = more abundant; growth selection in yeast, the domain comes from the species named
Settings: Homo sapiens

Q: With LEELEQFAKTFKQRRIKLGFTQGDIGLAMGKLYGNDFSQTTISRFEALNLSFKNMCKLKPLLEKWLNDAE as the variant, how does the abundance fitness read?
A: -0.094 ± 0.086

Q: Which abundance fitness does the source give for LEELEQFAKTFKQRRIKLGFTQGDPGLAMGKLYGNDFSQTTISRFEALNLSFKNMCKLKPLLEKWLNDAE here?
A: -0.687 ± 0.09

Q: For LEELEQFAKTFKQRRIKLGFTQGDGGLAMGKLYGNDFSQTTISRFEALNLSFKNMCKLKPLLEKWLNDAE, which abundance fitness is on record?
A: -0.711 ± 0.12

Q: With LEELEQFAKTFKQRRIKLGFTQGDWGLAMGKLYGNDFSQTTISRFEALNLSFKNMCKLKPLLEKWLNDAE as the variant, how does the abundance fitness read?
A: -0.645 ± 0.11

Q: For LEELEQFAKTFKQRRIKLGFTQGDSGLAMGKLYGNDFSQTTISRFEALNLSFKNMCKLKPLLEKWLNDAE, which abundance fitness is on record?
A: -0.843 ± 0.1

Q: For LEELEQFAKTFKQRRIKLGFTQGDFGLAMGKLYGNDFSQTTISRFEALNLSFKNMCKLKPLLEKWLNDAE, which abundance fitness is on record?
A: -0.372 ± 0.17

Q: For LEELEQFAKTFKQRRIKLGFTQGDLGLAMGKLYGNDFSQTTISRFEALNLSFKNMCKLKPLLEKWLNDAE, which abundance fitness is on record?
A: -0.349 ± 0.26

Q: For LEELEQFAKTFKQRRIKLGFTQGDVGDAMGKLYGNDFSQTTISRFEALNLSFKNMCKLKPLLEKWLNDAE, which abundance fitness is on record?
A: -0.136 ± 0.07

Q: Which abundance fitness does the source give for LEELEQFAKTFKQRRIKLGFTQGDVGIAMGKLYGNDFSQTTISRFEALNLSFKNMCKLKPLLEKWLNDAE here?
A: -0.005 ± 0.035

Q: With LEELEQFAKTFKQRRIKLGFTQGDVGFAMGKLYGNDFSQTTISRFEALNLSFKNMCKLKPLLEKWLNDAE as the variant, how does the abundance fitness read?
A: 0.01 ± 0.038

Q: Which abundance fitness does the source give for LEELEQFAKTFKQRRIKLGFTQGDVGKAMGKLYGNDFSQTTISRFEALNLSFKNMCKLKPLLEKWLNDAE here?
A: -0.052 ± 0.054

Q: Which abundance fitness does the source give for LEELEQFAKTFKQRRIKLGFTQGDVGWAMGKLYGNDFSQTTISRFEALNLSFKNMCKLKPLLEKWLNDAE here?
A: -0.106 ± 0.041

Q: Which abundance fitness does the source give for LEELEQFAKTFKQRRIKLGFTQGDVGYAMGKLYGNDFSQTTISRFEALNLSFKNMCKLKPLLEKWLNDAE here?
A: -0.113 ± 0.058

Q: For LEELEQFAKTFKQRRIKLGFTQGDVGVAMGKLYGNDFSQTTISRFEALNLSFKNMCKLKPLLEKWLNDAE, which abundance fitness is on record?
A: 0.003 ± 0.026

Q: With LEELEQFAKTFKQRRIKLGFTQGDVGAAMGKLYGNDFSQTTISRFEALNLSFKNMCKLKPLLEKWLNDAE as the variant, how does the abundance fitness read?
A: 0.073 ± 0.056

Q: With LEELEQFAKTFKQRRIKLGFTQGDVGRAMGKLYGNDFSQTTISRFEALNLSFKNMCKLKPLLEKWLNDAE as the variant, how does the abundance fitness read?
A: 0.016 ± 0.02

Q: With LEELEQFAKTFKQRRIKLGFTQGDVGNAMGKLYGNDFSQTTISRFEALNLSFKNMCKLKPLLEKWLNDAE as the variant, how does the abundance fitness read?
A: -0.13 ± 0.072

Q: Which abundance fitness does the source give for LEELEQFAKTFKQRRIKLGFTQGDVGPAMGKLYGNDFSQTTISRFEALNLSFKNMCKLKPLLEKWLNDAE here?
A: -0.31 ± 0.034

Q: Which abundance fitness does the source give for LEELEQFAKTFKQRRIKLGFTQGDVGMAMGKLYGNDFSQTTISRFEALNLSFKNMCKLKPLLEKWLNDAE here?
A: 0 ± 0.035

Q: For LEELEQFAKTFKQRRIKLGFTQGDVGTAMGKLYGNDFSQTTISRFEALNLSFKNMCKLKPLLEKWLNDAE, which abundance fitness is on record?
A: -0.053 ± 0.067

Q: With LEELEQFAKTFKQRRIKLGFTQGDVGHAMGKLYGNDFSQTTISRFEALNLSFKNMCKLKPLLEKWLNDAE as the variant, how does the abundance fitness read?
A: 0.049 ± 0.034

Q: For LEELEQFAKTFKQRRIKLGFTQGDVGEAMGKLYGNDFSQTTISRFEALNLSFKNMCKLKPLLEKWLNDAE, which abundance fitness is on record?
A: -0.002 ± 0.066

Q: With LEELEQFAKTFKQRRIKLGFTQGDVGCAMGKLYGNDFSQTTISRFEALNLSFKNMCKLKPLLEKWLNDAE as the variant, how does the abundance fitness read?
A: 0.039 ± 0.044

Q: For LEELEQFAKTFKQRRIKLGFTQGDVGQAMGKLYGNDFSQTTISRFEALNLSFKNMCKLKPLLEKWLNDAE, which abundance fitness is on record?
A: 0.003 ± 0.029

Q: With LEELEQFAKTFKQRRIKLGFTQGDVGLIMGKLYGNDFSQTTISRFEALNLSFKNMCKLKPLLEKWLNDAE as the variant, how does the abundance fitness read?
A: -0.054 ± 0.024

Q: With LEELEQFAKTFKQRRIKLGFTQGDVGLVMGKLYGNDFSQTTISRFEALNLSFKNMCKLKPLLEKWLNDAE as the variant, how does the abundance fitness read?
A: -0.052 ± 0.11

Q: Which abundance fitness does the source give for LEELEQFAKTFKQRRIKLGFTQGDVGLEMGKLYGNDFSQTTISRFEALNLSFKNMCKLKPLLEKWLNDAE here?
A: -0.508 ± 0.43

Q: Which abundance fitness does the source give for LEELEQFAKTFKQRRIKLGFTQGDVGLMMGKLYGNDFSQTTISRFEALNLSFKNMCKLKPLLEKWLNDAE here?
A: -0.043 ± 0.024

Q: Which abundance fitness does the source give for LEELEQFAKTFKQRRIKLGFTQGDVGLKMGKLYGNDFSQTTISRFEALNLSFKNMCKLKPLLEKWLNDAE here?
A: -0.008 ± 0.033

Q: For LEELEQFAKTFKQRRIKLGFTQGDVGLPMGKLYGNDFSQTTISRFEALNLSFKNMCKLKPLLEKWLNDAE, which abundance fitness is on record?
A: -0.56 ± 0.041

Q: For LEELEQFAKTFKQRRIKLGFTQGDVGLSMGKLYGNDFSQTTISRFEALNLSFKNMCKLKPLLEKWLNDAE, which abundance fitness is on record?
A: -0.042 ± 0.02

Q: With LEELEQFAKTFKQRRIKLGFTQGDVGLQMGKLYGNDFSQTTISRFEALNLSFKNMCKLKPLLEKWLNDAE as the variant, how does the abundance fitness read?
A: 0.048 ± 0.05

Q: With LEELEQFAKTFKQRRIKLGFTQGDVGLHMGKLYGNDFSQTTISRFEALNLSFKNMCKLKPLLEKWLNDAE as the variant, how does the abundance fitness read?
A: -0.059 ± 0.04

Q: With LEELEQFAKTFKQRRIKLGFTQGDVGLDMGKLYGNDFSQTTISRFEALNLSFKNMCKLKPLLEKWLNDAE as the variant, how does the abundance fitness read?
A: -0.079 ± 0.11

Q: For LEELEQFAKTFKQRRIKLGFTQGDVGLLMGKLYGNDFSQTTISRFEALNLSFKNMCKLKPLLEKWLNDAE, which abundance fitness is on record?
A: -0.04 ± 0.022

Q: With LEELEQFAKTFKQRRIKLGFTQGDVGLFMGKLYGNDFSQTTISRFEALNLSFKNMCKLKPLLEKWLNDAE as the variant, how does the abundance fitness read?
A: -0.11 ± 0.021

Q: For LEELEQFAKTFKQRRIKLGFTQGDVGLTMGKLYGNDFSQTTISRFEALNLSFKNMCKLKPLLEKWLNDAE, which abundance fitness is on record?
A: -0.01 ± 0.024

Q: Which abundance fitness does the source give for LEELEQFAKTFKQRRIKLGFTQGDVGLNMGKLYGNDFSQTTISRFEALNLSFKNMCKLKPLLEKWLNDAE here?
A: -0.061 ± 0.03
